Laboratory results taken from paper PMC11316097 (Nature Communications, 2024).

Target: T1, bovine cyclin A2 residues 169-430 (bovine, UniProt P30274 169-430)
T1 construct: cyclin A2, bovine, residues 169-430 of UniProt P30274 (equivalent to human cyclin A residues 171-432, UniProt P20248)
Assay: cryo-EM structure; purified pY15pT160CDK2, cyclin A and CDC25A(C431S) mixed 1:1.5:2, 1 hr on ice, gel filtration (Superdex S200) in 40 mM HEPES, 200 mM NaCl, 1 mM DTT, pH 7.4; grids with CHAPS; 2.7 Å
Details: both partners purified

T1 sequence (P30274 169-430): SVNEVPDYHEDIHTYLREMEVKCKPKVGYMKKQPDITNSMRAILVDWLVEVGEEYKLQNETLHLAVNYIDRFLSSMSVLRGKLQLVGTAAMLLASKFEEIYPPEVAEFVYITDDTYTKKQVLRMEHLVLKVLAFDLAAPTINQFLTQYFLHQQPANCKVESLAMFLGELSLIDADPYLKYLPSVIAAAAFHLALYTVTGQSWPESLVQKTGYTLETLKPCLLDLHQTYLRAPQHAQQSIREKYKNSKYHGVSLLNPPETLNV

B1: human CDC25A residues 335-524 (catalytic domain and C-terminal tail), Cys431Ser (domain or fragment, UniProt P30304 335-524, looked up)
chain: RDLIGDFSKGYLFHTVAGKHQDLKYISPEIMASVLNGKFANLIKEFVIIDCRYPYEYEGGHIKGAVNLHMEEEVEDFLLKKPIVPTDGKRVIVVFHSEFSSERGPRMCRYVRERDRLGNEYPKLHYPELYVLKGGYKEFFMKCQSYCEPPSYRPMHHEDFKEDLKKFRTKSRTWAGEKSKREMYSRLKKL
notes: Form used for cryo-EM and HDX-MS; also called CDC25A(C431S); CDC25A(Cys431Ser)
binding result: binds
